# Laboratory results published in patent publication US8440804B2, “Polypeptides having modulatory effects on cells” (Ecole Normale Superieure de Lyon, priority 2006, dated 2013).
# Key:
# [1] = system: CNA fragments (CNA constructs CNA1-CNA11); test: Further yeast two-hybrid binding assays (higher sensitivity); design: species or system human
# Excerpt: FIG. 14. Specificity of aptamers according to the invention for CNA and NS5A-TP2 Interaction matrix between peptide aptamers R5G42, C2, C7, C8, N9, R5G44 and R5G52 with CNA constructs CNA1-CNA8 (A) CNA9-11 (B) and NS5A-TP2 (C). An interaction phenotype between CNA3/CNA 11, which both contain the Calmodulin binding domain (CaM) and the auto-inhibitory domain (Al) but not the CNB binding domain (CNB) and the aptamers R5G42, C2, C7, C8 and N9 is observed in a two-hybrid assay. R5G44 and R5G52 aptamers recognize neither the CNA fragments, nor NS5A-TP2. Only aptamers R5G42 and N9 recognize NS5A-TP2.
# The inventors proceeded to further yeast two-hybrid binding assays between peptide aptamers R5G42 (SEQ ID 22), C2 (SEQ ID 23), C7 (SEQ ID 27), C8 (SEQ ID 28), N9 (SEQ ID 33), R5G44 and R5G52 with CNA constructs CNA1-CNA8 (FIG. 14A), CNA9-CNA11 (FIG. 14B) and NS5A-TP2 (SEQ ID 15) (FIG. 14C). The sensitivity of this yeast two-hybrid assay was higher than in the experiment reported above.
# MCF-7 cells = test: Colony formation assay (cell proliferation assay, crystal violet); assay type: cell-based; settings: MCF-7, continuous expression 2 weeks, compared to AptaLib and human thioredoxin
# Description: (§1) (B) Colony formation assays. Hela or MCF-7 cells were transfected with plasmids directing the stable expression of the Cdk inhibitor p21, a library of peptide aptamers from pBK1 (AptaLib), Human thioredoxin (HTRX), and peptide aptamers R7G44, R5G42, R5G52. The cells were cultured for two weeks and the colonies were stained with crystal violet.
# (§2) The inventors wished to establish the antiproliferative activity of these peptide aptamers using alternative cellular models and a non-retroviral vector to express individually each aptamer. They cloned the aptamer coding genes into a vector bearing a hygromycin selection marker. They also subcloned the pBK1 library into this vector, to create “AptaLib”. They continuously expressed the aptamers, the empty thioredoxin scaffold or AptaLib in Hela and MCF-7 cells for 2 weeks and they stained the cells that grew. […] These aptamers may originate from the remaining background of slowly proliferating cells during the seventh screening iteration, independently of the expressed aptamers. […] This could be due to the fact that the CMTMR assay is more sensitive in detecting modest antiproliferative effects than the colony formation assay or that some peptide aptamers somehow enhance the CMTMR labeling of their host cells.
# (§3) To stably express peptide aptamers in mammalian cells, the episomal eukaryotic expression vector pCEP4 that bears a CMV promoter and a hygromycin selection marker (InVitrogen) was used. Aptamer coding sequences were PCR amplified using the oligonucleotides
# (§4) that contained a stop codon. The PCR products were digested with NheI and NotI and ligated into NheI/NotI-cut pCEP4 to create pEA-aptamer plasmids. 3×10^5 cells/well were plated in 6-well plates and transfected 24 h after using Jet PEI (Qbiogen), 3.7 μg pEA-aptamer plasmids and 0.3 μg pEGFP-C1 (Clontech) to monitor transfection. Hygromycin (InVitrogen) was added at 200 μg/ml two days later and the cells were cultured for 2 weeks, renewing the medium twice a week. The cells were then rinsed in PBS and were fixed and stained by incubating 30 min in crystal violet (0.05% crystal violet, 20% ethanol, 0.37% formaldehyde). Excess crystal violet was removed by washing with water. In Vitro Phosphatase Assay
# Hela cells = test: as above; assay type: cell-based; settings: continuous expression 2 weeks, compared to AptaLib and human thioredoxin
# Description: as §1, §2, §3, §4
# CNA = test: Yeast two-hybrid assay; assay type: binding, human; settings: mating assay, LexA-aptamer fusions
# Excerpt: (§5) (A) Yeast two-hybrid mating assay. TB50α yeast were co-transformed with pSH18-34T (bearing a lacZ reporter gene) and plasmids directing the expression of LexA alone or in fusion with peptide aptamers R5G42, R7G44 or R5G52. MB210a yeast were transformed with the selected cDNA library plasmids directing the expression of CNAβ, CNAγ, and NS5ATP2 truncated proteins. To obtain negative controls, MB210a yeast were also transformed with the empty prey plasmid (pJG4-5) and with pJG4-5 directing the expression of Ras and FKBP12 prey proteins. To obtain a positive control, MB210a yeast were transformed with pJG4-5 directing the expression of RG22 peptide aptamer prey fusion protein that interacts with LexA in the context of most LexA fusion proteins.
# (§6) The inventors set out to map the R5G42 binding site on CNA. The CNA interacting clones selected in the yeast two-hybrid experiments corresponded to the carboxy-terminal regions of the beta and gamma isoforms, encompassing the calmodulin-binding domain and the auto-inhibitory domain (see FIG. 3B). […] The LexA-R5G52 bait protein may thus not be properly expressed and/or folded in this yeast two-hybrid setting.
# The inventors explored the ability of R5G42 mutants having a one amino acid change as compared to R5G42, to bind to CNA beta and gamma C-Terminal fragments (FIG. 3b) and to NS5A-TP2. To this end, they proceeded to yeast-two hybrid assays as in example 3. CNA beta and gamma C-Terminal fragments (FIG. 3b) and NS5A-TP2 were cloned in three different plasmids (pSH18-34, pJK103 and pRB18-40), which differed from each other in the level of sensitivity of their promoter to the bait/prey complex formation, pSH18-34 having the highest sensitivity and pRB18-40 having the lowest.
# The 5′ end of RH6 (upper case) matches part of the HA epitope tag and the 5′ ends of RH4, RH3 and RH7 (upper case) match the 5′ extremity of the ADH terminator. The PCR reactions was performed using pCMV-SPORT6-CnAβ as a template. CnAβCter Δ1, Δ2, CaM were constructed by combining oligonucleotides RH6/RH4, RH6/RH3, RH6/RH7, respectively. […]
# [2] = system: Bad phosphorylation (phosphatase activity of calcineurin in cells); test: Monitoring of Bad phosphorylation in HeLa cells (western blot); assay type: cell-based; settings: transient expression in human cells
# Description: (B) Monitoring of BAD phosphorylation in cultured cells. Hela-Tet cells were transfected with plasmids directing the transient expression of BAD, CNAβ, CNB and peptide aptamers R5G42, R5G52 or R7G44. Transfected cells were treated or not with 500 nM FK506. The expression level of BAD and the phosphorylation of serine 112 and 136 residues were monitored by western blot experiments using specific antibodies.
# The inventors set out to confirm this finding in human cells. Bad is a key pro-apoptotic protein whose activity is tightly regulated by its phosphorylation status, itself controlled by the balanced activity of several protein kinases and calcineurin. Therefore, the phosphatase activity of calcineurin in cells can be monitored by examining Bad phosphorylation. HeLa cells were transfected with plasmids directing the expression of Bad, CNAβ, CNB and either R5G42, R5G52 or R7G44.
# The peptide aptamer coding genes were cloned into pPEAt (a pCEP4-based vector that bears a tetracyclin-inducible promoter and a hygromycin resistance gene), as described above (“cell proliferation assay”).
# 4×10^5 Hela-tet cells/well were seeded in a 6-well plate 24 h before transfection. […] The lysates were centrifuged to remove cellular debris and the protein content was quantified using the microBCA protein assay kit (Pierce). […]
# peptide aptamer RG22 = test: Yeast two-hybrid mating assay, positive control of interaction; assay type: binding; settings: RG22 interacts with LexA in most LexA fusion proteins
# Excerpt: as §5, §6
# The 5′ end of RH6 (upper case) matches part of the HA epitope tag and the 5′ ends of RH4, RH3 and RH7 (upper case) match the 5′ extremity of the ADH terminator. The PCR reactions was performed using pCMV-SPORT6-CnAβ as a template. […]
molecule,measurement,setting,value
"R5G52: peptide aptamer: variable region IQSPPESPTG in human thioredoxin (SEQ ID 32) (protein, left off: large carriers) MVKQIESKTAFQEALDAAGDKLVVVDFSATWCGPIQSPPESPTGGPCKMIKPFFHSLSEKYSNVIFLEVDVDDCQDVASECEVKCMPTFQFFKKGQKVGEFSGANKEKLEATINELV",recognition of the CNA fragments,[1],recognized neither the CNA fragments
same,inhibition of cell proliferation (colony formation),MCF-7 cells,significantly inhibited the proliferation
same,inhibition of cell proliferation (colony formation),Hela cells,significantly inhibited the proliferation
same,yeast two-hybrid interaction phenotype with CNA,CNA,did not show an interaction phenotype
same,Bad phosphorylation levels,[2],does not affect Bad phosphorylation levels
same,yeast two-hybrid interaction phenotype,peptide aptamer RG22,did not show an interaction phenotype
